# According to patent US10488411B2, “Inflammasome activation in myelodysplastic syndromes” (H. LEE MOFFITT CANCER CENTER AND RESEARCH INSTITUTE, INC., priority 2015, dated 2019):
# Tests used:
# [1] = test system: pyroptosis-related gene expression; assay: qPCR of pyroptosis-related gene expression in lower-risk MDS BM-MNC; format: cell-based, human; conditions: lower-risk MDS BM-MNC (n=5), 24 hours, versus autologous BM plasma alone
# Protocol: Real-time quantitative PCR. RNA was isolated from BM-MNC using the RNeasy Mini Kit (Qiagen). cDNA was produced using the iScript cDNA Synthesis Kit (Bio-Rad). Sequences for primers can be found in Table 1. GAPDH mRNA was used for transcript normalization. cDNA was amplified using the iQ SYBR Green Supermix and the CFX96 Real-Time PCR Detection System (Bio-Rad). PCR conditions were as follows: 10 minutes at 95° C., followed by 40 cycles of amplification (15 seconds at 95° C. and 1 minute at 60° C.). Relative gene expression was calculated using the −2^ΔΔCt method.
# MDS BM-MNC = assay: Pyroptosis flow cytometry panel (a-caspase-1+/annexin-V+) in MDS BM-MNC incubated with autologous BM plasma; format: cell-based, human
# Protocol: Pyroptosis flow cytometry panel. For human samples, treated and untreated BM-MNC were incubated overnight in IMDM, supplemented with 10% autologous BM plasma. Subsequently, cells were harvested, washed twice in 1×PBS, and stained with LIVE/DEAD Violet fluorescent reactive dye according to the manufacturer's protocol (Life Technologies). Cells were resuspended in 1×PBS with 2% BSA, and incubated at room temperature for 15 minutes to block non-specific binding. After washing, cells were stained with 30× FAM-FLICA® Caspase-1 and Caspase-3/7 solution at a ratio of 1:30 for 2 hours at 37° C. Cells were washed and stained for cell surface receptors using CD38:PE-CF594, CD33:BV711, CD34:APC (BD Biosciences), and CD71:PE-Cyanine7 (eBioscience). All antibodies were diluted 1:20, and cells were stained for 30 minutes at 4° C. Cells were washed, resuspended in 1× binding buffer, and stained with Annexin-V:Cy5.5 at a dilution of 1:20 for 15 minutes at room temperature (BD Biosciences). 1× binding buffer was added to a final volume of 400 μL. Sample acquisitions were carried out using a BD LSR II flow cytometer and FACSDiva software (BD Biosciences). Calibration of the flow cytometer was carried out prior to each experiment using Rainbow Mid-Range Fluorescent Particles (BD Biosciences). To establish fluorescence compensation settings, ArC Amine Reactive Compensation Beads were used for LIVE/DEAD Violet staining (Life Technologies), and BD CompBead Plus Anti-Mouse Ig κ/Negative Control (BSA) Compensation Plus Particles were used for surface receptor conjugates (BD Biosciences). Data were analyzed using FlowJo 9.7.5 software (FlowJo, LLC, Ashland, Oreg.).
molecule,measurement,setting,value
"CD33-IgG1: S100A9 high-affinity chimeric (CD33-IgG1) decoy receptor (protein, left off: a dimerising Fc or GST) DPNFWLQVQESVTVQEGLCVLVPCTFFHPIPYYDKNSPVHGYWFREGAIISRDSPVATNKLDQEVQEETQGRFRLLGDPSRNNCSLSIVDARRRDNGSYFFRMERGSTKYSYKSPQLSVHVTDLTHRPKILIPGTLEPGHSKNLTCSVSWACEQGTPPIFSWLSAAPTSLGPRTTHSSVLIITPRPQDHGTNLTCQVKFAGAGVTTERTIQLNVTYVPQNPTTGIFPGDGSGKQETRAGVVH",CASP3 expression,[1],markedly reduced
same,expression of CASP1,[1],reduced
same,expression of IL-1β,[1],reduced
same,expression of IL-18,[1],reduced
same,expression of NLRP3,[1],reduced
same,"reduction of fraction of pyroptotic cells, maximum lineage-specific change, CD33+ cells","MDS BM-MNC; CD33+ immature myeloids, 0.5 μg CD33-IgG1 or 0.1 μM IRAK4 inhibitor, 24 hours, autologous BM plasma",68%
same,"reduction of fraction of pyroptotic cells, maximum lineage-specific change, CD71+ cells","MDS BM-MNC; CD71+ erythroids, 0.5 μg CD33-IgG1 or 0.1 μM IRAK4 inhibitor, 24 hours, autologous BM plasma",64%
same,fraction of pyroptotic cells across all lineages studied,"MDS BM-MNC; MDS BM-MNC (n=4) with autologous BM plasma, 0.5 μg CD33-IgG1 or 0.1 μM IRAK4 inhibitor, 24 hours",marked reduction
same,"reduction of fraction of pyroptotic cells, maximum lineage-specific change, progenitor cells","MDS BM-MNC; progenitor cells (CD34+CD38+), 0.5 μg CD33-IgG1 or 0.1 μM IRAK4 inhibitor, 24 hours, autologous BM plasma",23%
same,MDSC fraction,MDS BM-MNC; short-term treatment of MDS BM-MNC,significantly reduced
same,"reduction of fraction of pyroptotic cells, maximum lineage-specific change, stem cells","MDS BM-MNC; stem cells (CD34+CD38-), 0.5 μg CD33-IgG1 or 0.1 μM IRAK4 inhibitor, 24 hours, autologous BM plasma",44%
